Measured values published in patent US8487076.

Experiments:
[1] = biological target: HLA-A24 molecule, product of the HLA-A*2402 gene, on C1R-A24 cells (human); experiment: flow cytometry; acid-stripped C1R-A24 cells reassociated with b2m and peptide dilutions, stained with labeled mAb 17A12; conditions: remark: other sources report otherwise
[2] = biological target: HLA-A2 molecule, product of the HLA-A*0201 gene, on JY cells (human); experiment: flow cytometry; acid-stripped JY cells reassociated with b2m and peptide dilutions, stained with labeled mAb BB7.2; conditions: remark: other sources report otherwise

Binder | -log Kd (-log Kd (Kd in molar concentration)) [1] | -log Kd (-log Kd (Kd in molar concentration)) [2]
FLKDHRISTF [SEQ ID NO 44 (…), HLA-A24-binding 10 amino acid peptide of survivin] | 7.01 | 
TLPPAWQPF [SEQ ID NO 1 (…), HLA-A24-binding 9 amino acid peptide of survivin] | 8.26 | 
FLKDHRISTF [SEQ ID NO 61 (…), HLA-A2-binding 10 amino acid peptide of survivin] |  | 5.53
TLPPAWQPF [SEQ ID NO 23 (…), HLA-A2-binding 9 amino acid peptide of survivin] |  | 5.36
